Measurements reported in PMC3285612.
Like-named read-outs stand apart in the source and are kept apart here. Each block holds one substance with its values, some of them ahead of it.

Legend:
thrombin [1] = biological target: thrombin (UniProt P00734); conditions: cited from earlier work
Factor Xa (Homo sapiens) = Factor Xa (Homo sapiens) (UniProt P00742); conditions: cited from earlier work
Factor X (Homo sapiens) = Factor X (Homo sapiens) (UniProt P00742); conditions: cited from earlier work
[2] = biological target: Factor Xa (FXa) (Homo sapiens) (UniProt P00742); conditions: cited from earlier work
Sequence of Factor Xa (FXa) (Homo sapiens) (P00742 41-179, chain 1 of 2): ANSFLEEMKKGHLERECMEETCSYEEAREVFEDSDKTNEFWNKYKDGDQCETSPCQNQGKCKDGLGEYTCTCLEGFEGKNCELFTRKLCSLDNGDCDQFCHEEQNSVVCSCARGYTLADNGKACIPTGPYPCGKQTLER
Sequence of Factor Xa (FXa) (Homo sapiens) (P00742 235-488, chain 2 of 2): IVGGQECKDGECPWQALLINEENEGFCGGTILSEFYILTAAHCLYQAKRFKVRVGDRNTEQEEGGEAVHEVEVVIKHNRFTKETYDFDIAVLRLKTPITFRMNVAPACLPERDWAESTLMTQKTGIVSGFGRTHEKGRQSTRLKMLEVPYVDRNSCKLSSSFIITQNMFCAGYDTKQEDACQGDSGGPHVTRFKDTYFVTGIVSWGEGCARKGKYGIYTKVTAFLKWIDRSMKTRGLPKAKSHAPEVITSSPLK

[3] = biological target: Factor X (FX) (Homo sapiens) (UniProt P00742); conditions: cited from earlier work
Sequence of Factor X (FX) (Homo sapiens) (P00742 41-179, chain 1 of 2): as the sequence (P00742 41-179, chain 1 of 2) above
Sequence of Factor X (FX) (Homo sapiens) (P00742 183-488, chain 2 of 2): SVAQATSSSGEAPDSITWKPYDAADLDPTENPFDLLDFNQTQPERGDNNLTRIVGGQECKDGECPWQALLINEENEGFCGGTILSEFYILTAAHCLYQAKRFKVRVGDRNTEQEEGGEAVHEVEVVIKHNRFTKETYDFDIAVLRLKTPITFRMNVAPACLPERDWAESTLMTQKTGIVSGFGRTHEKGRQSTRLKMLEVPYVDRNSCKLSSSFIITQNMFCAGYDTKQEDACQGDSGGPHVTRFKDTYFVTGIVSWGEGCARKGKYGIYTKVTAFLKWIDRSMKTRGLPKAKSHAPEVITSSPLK

thrombin [4] = biological target: thrombin (UniProt P00734); conditions: cited from earlier work; remark: listed apart in the source
[5] = biological target: recombinant Simukunin (rSV-66) (Simulium vittatum) (UniProt B5M0W4); experiment: SPR; kinetics: rSimukunin immobilised on a CM5 chip by amine coupling (475.3 RU); FXa 3.1-50 nM or elastase 0.45-3.75 nM injected for 180 s at 30 µl/minute, 25°C; HBS-P (10 mM Hepes pH 7.4, 150 mM NaCl, 0.005% P20); global fit to a 1:1 Langmuir model
Sequence of recombinant Simukunin (rSV-66) (Simulium vittatum) (B5M0W4 20-102): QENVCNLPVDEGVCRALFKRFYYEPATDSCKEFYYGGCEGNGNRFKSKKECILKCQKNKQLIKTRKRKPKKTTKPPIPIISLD

Sequence of ixolaris (Q964Q0 27-165): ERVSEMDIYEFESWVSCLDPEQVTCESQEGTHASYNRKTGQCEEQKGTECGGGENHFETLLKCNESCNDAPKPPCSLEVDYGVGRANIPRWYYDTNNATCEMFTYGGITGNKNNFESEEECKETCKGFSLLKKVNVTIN
Sequence of Factor X (Homo sapiens) (P00742 41-179): as the sequence (P00742 41-179, chain 1 of 2) above
Sequence of ornithodorin (P56409 whole entry): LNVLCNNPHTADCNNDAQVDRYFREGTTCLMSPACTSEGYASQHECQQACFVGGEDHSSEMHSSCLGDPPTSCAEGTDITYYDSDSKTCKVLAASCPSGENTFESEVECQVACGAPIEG
Sequence of amblin (Q5VJG2 16-166): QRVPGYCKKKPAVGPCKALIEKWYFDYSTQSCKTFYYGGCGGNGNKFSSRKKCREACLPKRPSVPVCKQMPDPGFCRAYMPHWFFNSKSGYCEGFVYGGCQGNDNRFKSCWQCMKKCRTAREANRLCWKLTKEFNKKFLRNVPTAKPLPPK
Sequence of Factor Xa (Homo sapiens) (P00742 235-488): as the sequence (P00742 235-488, chain 2 of 2) above

Substance: amblin (from UniProt Q5VJG2)
Ki (thrombin [1]): 20 nM

Substance: ixolaris (from UniProt Q964Q0)
Kd (Factor Xa (Homo sapiens)): 0.25 nM | Kd (Factor X (Homo sapiens)): 0.67 nM | Kd [2]: 0.25 nM | Kd [3]: 0.67 nM

Substance: ornithodorin (from UniProt P56409)
Ki (thrombin [4]): 0.001 nM

Kd [5]: 3.07 nM | koff [5]: 0.000303 s⁻¹ | kon [5]: 98700 M⁻¹ s⁻¹
Substance: activated coagulation factor X (FXa), human (enzyme)
